Data published in publication doi:10.1101/2022.10.06.510747.
Read-outs that look alike come from different tables or passages of the source.

How the values were obtained:
[1] = biological target: PfTGS1-NLS-GFP (bi-partite NLS of P. falciparum trimethyl guanosine synthase 1 fused to GFP) (Plasmodium falciparum); test: SPR
[2] = biological target: PfTGS1-NLS-GFP (bi-partite NLS of P. falciparum trimethyl guanosine synthase 1 fused to GFP) (Plasmodium falciparum); test: SPR; remark: listed apart in the source
[3] = biological target: SV40 T-ag-NLS-GFP (SV40); test: AlphaScreen or HTRF
[4] = biological target: ΔIBB-TgImpα (T. gondii importin α lacking the IBB domain, amino acids 92-545, C-terminal His-tag) (Toxoplasma gondii); test: pull-down

MmHinge-TgImpα (TgImpα chimera containing the hinge motif from MmImpα2) (from UniProt P52293 57-70)
Kd [1]: 5.1 nM

KRR-TgImpα (KKR/KRR mutant of the third basic cluster) (natural protein)
Kd [1]: 1450 nM

ΔIBB-TgImpα (T. gondii importin α lacking the IBB domain, amino acids 92-545, C-terminal His-tag) (domain or fragment)
Kd [2]: 240 nM

AAA-TgImpα (KKR/AAA mutant of the third basic cluster) (natural protein)
Kd [1]: 280 nM

WT-TgImpα with a C-terminal GST tag (from UniProt A0A125YID0 1-545) (natural protein)
Kd [3]: 3.5 nM

pre-dimerized TgImpα/MmImpβ1 (from UniProt P70168 1-876) (complex)
Kd [3]: 1.5 nM

PfTGS1-NLS-GFP (bi-partite NLS of P. falciparum trimethyl guanosine synthase 1 fused to GFP) (domain or fragment)
relative band intensity (pulled down by ΔIBB-TgImpα over WT-TgImpα) [4]: 4.6

SKR-TgImpα (KKR/SKR mutant of the third basic cluster) (natural protein)
Kd [1]: 410 nM

WT-TgImpα (full-length Toxoplasma gondii importin α with C-terminal His-tag) (natural protein)
Kd [2]: 830 nM
Kd [1]: 3.26 nM
